Test: yeast display, Sf9 membrane polyspecificity reagent, FACS + sequencing; frameworks hold sequencing errors
Procedure, shortened: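 After 36–48 hours of galactose induction, yeast (Saccharomyces cerevisiae BJ5465) displaying a synthetic nanobody library were stained at 4 °C for 1 hour with 10% biotinylated, detergent-solubilized Sf9 membrane reagent. Streptavidin microbeads enriched the stained cells before FACS sorting into low and high (top ~1%) gates on anti-HA and streptavidin fluorescence. Each clone's polyreactivity label reflects its gate of origin.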

| Sequence | polyreactivity (PSR sort gate) |
| --- | --- |
| QVQLVESGGGLVQAGGSLRLSCAASGRIFGGYAMGWYRQAPGKERELVATITANGGRTRYADSVKGRFTISRDNAKNTVYLQMNSLKPEDTAVYYCARVYYSSSGYGYWGQGTQVTVSS | high polyreactivity |
| QVQLVESGGGLVQAGGSLRLSCAASGSTFYDYAMGWYRQAPGKERELVASISISGGSTYADSVKGRFTISRDNAKNTVYLQMNSLKPEDTAVYYCAADSWGIGYGPDYEYWGQGTQVTVSS | low polyreactivity |
| QVQLVESGGGLVQAGGSLRLSCAASGFIFTLYAMGWYRKAPGKEREFVAAISWSDGSTTYADSVKGRFTISRDNAKNTVYLQMNSLKPEDTAVYYCNTSYIIWYDSWGQGTQVTVSS | low polyreactivity |
| QVQLVESGGGLVQAGGSLRLSCAASGSTIPRYAMGWYRQAPGKERELVAAISGRGGSTYYADSVKGRFTISRDNAKNSFYFQLISLKPEDTAVYYCNAYRRYYTMYYWGQGTQVTVSS | high polyreactivity |
| QVQLVESGGGLVQAGGSLRLSCAASGSIFPWYVMGWYRQAPGKERELVAAISWNGGITYADSVKGRFTISRDNAKNTVYLQMNSLKPEDTGVYYCAAYYITYSYIEYDYWGQGTQVSVSS | high polyreactivity |
| QVQLVESGGGLVQAGGSLSLICAASRLTFYLYAMGWYRQAPGKERELLAAISYSGGSTYYADSVKGRFTISRDNAKNTVYLQMNSLKPEDTAVYYCNALRAGTDSRRTYGSTYGYWGQGTQVTVSS | high polyreactivity |
| QVQLVESGGGLVQAGGSLRLSCAASGRTFDYYAMGWYRQAPGKERELVAAISSSGGSTYYADSVKARFTISRDNAKNTVYLQMNSLKPEDTEVYYCNAYAYRFNHIHHIYTTVGEYWGQGTQVTVSS | high polyreactivity |
| QVQLVESGGGLVQAGGSLRLSCAASGSIFRDYVMGWYRQAPGKERELVAAISGNDGSTYYADSVKGRFTISRDNAKNTVYLQMNSLKPEDTAVYYCNADEASTVPQFYSYLDFDYWGQGTQVTVSS | low polyreactivity |
| QVQLVESGGGLVQAGGSLRLSCAASGFTFYLYAMGWYRQAPGKERELVASISSGGRTYYADSVKGRFTISRDNAKNTVYLQMNSLKPEDTAVYYCAVSPYSRRKYEYYYWGQGTQVTVSS | high polyreactivity |
| QVQLVESGGGLDQAGGSLPLSCAASGRILQGYAMGWYRQAPGKEREMVASIRTGGTTNYADSVKGRFTISRDNAKNTVYLQMNSLKPEDTAVYYCNRGYDSYYGRYYYWGQGTQVTVSS | high polyreactivity |
| HVQLVESGGGLVQAGGSLRLSCAASGRIFGYYAIGWYRQATRKERELVAAITINGRRTYYADSVKGRFTISRDNAKNTVYLQMKSLKPEDTAVYLCTATSRYNRLGYWGQGTQVSVSS | high polyreactivity |
| QVQLVESGGGLVQAGGTLPLSCAASGYTISRNAKGWYRQAPGKARELDAAISRGGRTNYADSVKGRFTISRDNAKNSVYLHLNSLKPEDTAVYYCAANSTTGLRSPRGAGGHDYWGQGTQVTVSS | high polyreactivity |
| QVQLVESGGGLVQAGGILRLSCAASGSTISYNAMGWYRQAPGKERELVAAINYSGGNTNYADSVKGRFTISRDNAKNTVYLQMNSLKPEDTAVYYCAARWWSGYGYWGQGTQVTVSS | high polyreactivity |
| QVQLVESGGGLVQAGGSLRLSCAASGSIYWNTMGWYRQAPGKERELVAGISSSGDSTYYADSVKGRFTISRDNAKNTVYLQMNSLKPEDTAVYYCAARTRRFRYYYWGQGTQVTVSS | high polyreactivity |
| QVQLVESGGGLVQAGGSLRLSCAASGRTFRSYAMGRYRQAPGKVRELVAAISYGGGSTYYADSVKGRFTISRDNAKNTVYLQMNSLKPEDTAVYYCAAAGNKRGGYDYWGQGTQVTVSS | high polyreactivity |
| QVQLVESGGGLVQAGGSLRLSCAASGRIFGYYTMGWYRQAPWKESELVARIRRNGVSTYYADSVKGRFTISRDNEKNTVYLQMNSLKPEDTAVYYCAAGYSINFKYDYWGQGTQVTVSS | high polyreactivity |

| Sequence | polyreactivity (PSR sort gate) |
| --- | --- |
| QVQLVESGGGLVQAGGSLRLSCAASGSIFRGYTMGWYRQAPGKERELFAAISTRGGSTYYADSVKGRFTISRDNAKNTVYLQMNSLKPEDTAVYYCNARSRGRASGYDYWGQGTQVTVSS | high polyreactivity |
| QVQLVESGGGLVQAGGSLRLSCAASGRTFGSYAMGWNRPATRLERELVAAISDGGSTNYADSVKGRFTISRDNAKITVYLQMNSLTPEDTAVYYCAAEIFFAVFRFYYSGQGTQVTVSS | low polyreactivity |
| QVQLVESGGGLVQAGGSLRLSCAASGIIFKSYAMGWYRQAPGKERELVAAITKRGGSTYYADSVKGRFTISRDNAKNTVYLQMNSLKPEDSAVYYCAAFAVPYDYWGQGTQVTVSS | high polyreactivity |
| QVQLVESGGGLVQAGGSLRLSCAASGGIFNYYAMGWYRQAPGKERELVAAISASGGSTYYADSVKGRFTISRDNAKNTVYLQMNSLKQEDTAVYYCAAKYPQKTPVNSYGNSFYYWGQGTQVTVSS | low polyreactivity |
| QVQLVESGGGLVQAGGSLRLSCAASGSTFYLYAMGWYRQAPGKERELVAAISWSGDSTYYADSVKGRFTISRDNAKNTVYLQMNSLKPEDTAVYYCAAEFYWGDLSYWGQGTQVSVSS | high polyreactivity |
| QVQLVESGGGLVQAGGSLRLSCAASGSIFYRNAMGWYRQAPGKERELVAAISRSGGSTYYADSVKGRFTISRDNAKNTVYLQMNSLKPEDTAVYYCAKARPLGGTPSNGFDYWGQGTQVTVSS | high polyreactivity |
| QVQLVESGGGLVQAGGSLRLSCAASGRTYVSYAMGWYRQAPGKERELVATITGSTGGTYYADSVKGRFTISRDHAKNTVYLQMNSLKPEDTAVYYCNKDYYYNPGNVASGYDYWGQGTQVTVSS | low polyreactivity |
| QVQLGESGGGLVQAGGSLRLSCAASGRTFWSYAMGWYREAAGKERELVAAITSSGGTTNDADSVKGRFTISRDNAKNTVYLQMNSLKPEDTAVYYCAAYSWYFGSRYDYWGQGTQVTVSS | low polyreactivity |
| QVQLVESGGGLVQAGGSLRLSCAASGRTFFFYAMGWYRQAPGKERELVADITWSDGTTYYAESVKGRFTISRDNAKNTVYLQMNSLKPEDTAVYYCAKVRTGQSRSVGYDYWGQGTQVTVSS | low polyreactivity |
| QVQLVESGGGLVQAGGSLRLSCAASGSISASYAMGWYRQAPGKERELVAAITSGGSTYYADSVKGRFTISRDNAKNTVYLQMNSLKPEDTAVYYCAKRPKRTYYPHIGYDYWGQGTQVTVSS | low polyreactivity |
| QVHLVESGGGLVQAGGSRRLSCAASGSIFRWYAMGWSRQAPGKERELVAAITRSGGRTYYADSVKGRFTISRDNAKNTVYLQMNSLKPEDTAVYYCAAVARTVPSYSYNYWGQGTQVTVSS | high polyreactivity |
| QVQLVESGGGLVQAGGSLRLSCAASGRTFGNYAMGWYRQARGKERELVASISRRGGSTYYADSVKGRFTISRENAKNTVYLQMTSLKPDDTAVFYCATLRGRQRFGYDYWGQGTQVTVSS | high polyreactivity |
| QVQLVESGGGLVQAGGSLRLSCAASGRTFNSYAMGWYRQAPGKEREFVASITFSTGRTYYADSVKGRFTISRDNAKNTVYLQMNSLKPEDTAVYYCNVRFVTGYRYRYGDDYWGQGTQVTVSS | low polyreactivity |
| QVQHVESGGGLVQAAGSLRLSCAASGTTLSSYAMGWSRQAPGKVRELVAAINSSGGRTYYADSVKGRFTISRDNAKNTVYLQMNSLKPDDTAVYYCAATRGRYREYEDYWGQGTQVTVSS | high polyreactivity |
| QVQLVESGGGLVQAGGSLRLSCAASGSTFLLNAMGWSRQAPGKDRELVAAITWTGGSTYYADSVKGRFTISRDNAKNTVYLQMNILKPEDTAVYYCAAETYVTSYDYWGQGTQVTVSS | low polyreactivity |
| QVQLVESGGGLVQAGGSLRLSCAASGSIISRNAMGWYRQAPGKERELVAAITSSGDSTYYADSVKGRFTISRDNAKNTVYLQMNSLKPEDTAVYYCNARAYRRKRYDYWGQGTQVTVSS | high polyreactivity |
